Results as given in patent US20110265198.

Legend:
Experiment in all cases: cell_activity
ZFN 18477 (synthetic) = conditions: pair with 18473; Cel-I assay
ZFN 25096 (synthetic) = conditions: pair with 18473; Cel-I assay
ZFN 18473 (synthetic) = conditions: pair with 25096 (26.5% with 18477); Cel-I assay

Q: With “CTAGAAAGACTGGAGTTGCAGATCACGA (double strand) [18477 target]” as the sequence, how does the activity (ZFN 18477 (synthetic)) read?
A: The activity was 26.5 % NHEJ.

Q: For “CTAGAAAGACTGGAGTTGCAGATCACGA (double strand) [25096 target]”, which activity (ZFN 25096 (synthetic)) is on record?
A: Its activity is 35.7 % NHEJ.

Q: “GATGGGCGGGAGTCTTCTGGGCAGGCTT (double strand) [18473 target]” was tested. Which activity (ZFN 18473 (synthetic)) did it give?
A: The activity was 35.7 % NHEJ.
